Assay results published in the RNAGym collection of RNA variant scans (doi:10.7554/elife.80360).

B1: Hairpin Ribozyme (parent)
chain: GUCCUCUUUCACGUGCGCGUGAAAGAGAGAAGUGAACCAGAGAAACACACGUUGUGGUAUAUUACCUGGUA

Variants of: B1
Experiment: self-cleavage, relative activity (ratio to wild type); higher = more cleavage; co-transcriptional

Variant	self-cleavage
U53A A71C	1.41
U53A C66U	0.649
U53A G54A	0.68
U53A G57A	0.14
U53A G57U	0.181
U53A U58A	0.746
U53A U60A	1.08
U53A U62A	0.266
U53A U62G	0.146
U53A U63C	0.156
U53C A59C	0.217
U53C A59U	0.166
U53C A64C	0.278
U53C A64U	0
U53C C65U	0.274
U53C G57U	0.234
U53C U58C	1.26
U53C U60A	0.635
U53C U60G	0.557
U53C U62G	0.122
U53C U70A	1.09
U53G A59C	0.166
U53G A59G	0.114
U53G A61C	0.0932

Variant	self-cleavage
U53G A61G	0.313
U53G A64U	0.144
U53G A71C	1.29
U53G A71U	0.635
U53G G54C	0.551
U53G G54U	0.49
U53G G56A	0.195
U53G G56C	0.125
U53G G56U	0.223
U53G G57A	0.178
U53G G57U	0.164
U53G G69U	0.279
U53G U55A	0.269
U53G U55C	0.369
U53G U58A	0.394
U53G U62C	0.281
U53G U63G	0.156
G54A	0.583
G54A A59G	0.17
G54A A59U	0.148
G54A A61U	0.254
G54A C65A	0.497
G54A C65G	0.107
G54A G57A	0.182

Variant	self-cleavage
G54A G57U	0.27
G54A G68U	0.227
G54A G69C	0.177
G54A G69U	0.143
G54A U58A	0.453
G54A U60G	0.204
G54A U63C	0.216
G54C	0.433
G54C A59C	0.195
G54C A61C	0.183
G54C A64U	0.155
G54C A71G	0.438
G54C C65A	0.194
G54C C66U	0.254
G54C G56A	0.116
G54C G56U	0.166
G54C G57C	0.155
G54C G57U	0.217
G54C G68A	0.187
G54C G69A	0.0998
G54C U55A	0.196
G54C U60G	0.27
G54C U62A	0.186
G54C U62C	0.108

Variant	self-cleavage
G54C U63G	0.119
G54C U67C	0.109
G54C U70A	0.216
G54C U70G	0.155
G54U	0.626
G54U A59C	0.0613
G54U A61G	0.139
G54U A61U	0.268
G54U A64C	0.128
G54U A64G	0.4
G54U A71C	1.1
G54U C65A	0.561
G54U C65G	0.145
G54U C66A	0.228
G54U C66U	0.211
G54U G68A	0.22
G54U G68C	0.212
G54U G69A	0.122
G54U U55C	0.18
G54U U55G	0.399
G54U U58A	0.302
G54U U60C	0.834
G54U U62C	0.172
G54U U63A	0.267

Variant	self-cleavage
G54U U63G	0.159
G54U U67A	0.207
G54U U70A	0.657
U55A A59C	0.252
U55A A59G	0.163
U55A A61G	0.156
U55A A64C	0.13
U55A A71C	0.697
U55A A71G	0.14
U55A C65G	0.19
U55A C66A	0.188
U55A G56C	0.203
U55A G56U	0.148
U55A G57A	0.148
U55A G57C	0.146
U55A G68U	0.17
U55A G69A	0.172
U55A G69U	0.146
U55A U58A	0.273
U55A U62G	0.0995
U55C A59U	0.239
U55C A61C	0.0408
U55C A64C	0.102
U55C A64G	0.132

Variant	self-cleavage
U55C A71C	0.596
U55C A71U	0.16
U55C C65A	0.142
U55C C66A	0.13
U55C C66G	0.191
U55C G56U	0.321
U55C G57C	0.12
U55C U58C	0.475
U55C U58G	0.175
U55C U70A	0.143
U55C U70C	0.195
U55G A64C	0.153
U55G A64U	0.158
U55G A71G	0.241
U55G C66U	0.422
U55G G57C	0.126
U55G G69C	0.257
U55G U58A	0.199
U55G U63G	0
U55G U67C	0.181
U55G U70A	0.351
U55G U70G	0.17
G56A A59U	0.125
G56A A61U	0.166

Variant	self-cleavage
G56A A71G	0.245
G56A C66G	0.114
G56A C66U	0.296
G56A G57A	0.136
G56A G57C	0.128
G56A G68A	0.119
G56A G69C	0.108
G56A U60G	0.186
G56A U62G	0.293
G56A U63A	0.133
G56A U67A	0.197
G56A U70A	0.223
G56A U70C	0.247
G56C A61U	0.177
G56C A71U	0.119
G56C G57C	0.173
G56C G57U	0.153
G56C G68U	0.173
G56C U58G	0.234
G56C U60A	0.106
G56C U60C	0.156
G56C U62A	0.263
G56C U63A	0.0712
G56C U63C	0.17

Variant	self-cleavage
G56C U63G	0.175
G56C U67A	0.205
G56C U67G	0.203
G56U A61C	0.134
G56U A61G	0.178
G56U A64U	0.173
G56U C65A	0.203
G56U C65G	0.104
G56U C65U	0.276
G56U U58G	0.0453
G56U U60A	0.219
G56U U60C	0.135
G56U U60G	0.231
G56U U62G	0.104
G56U U63G	0.0375
G56U U70G	0.0481
G57A A59U	0.0919
G57A A71U	0.187
G57A C65U	0.231
G57A C66A	0.215
G57A G68A	0.119
G57A U60C	0.205
G57A U62A	0.212
G57A U62C	0.117

Variant	self-cleavage
G57A U63C	0.151
G57A U63G	0.182
G57A U67A	0.2
G57A U70G	0.111
G57C A59C	0.183
G57C A61U	0.161
G57C A64C	0.178
G57C C65A	0.0756
G57C C66U	0.101
G57C G69U	0.0905
G57C U58A	0.222
G57C U58C	0.258
G57C U62G	0.155
G57C U63C	0.272
G57C U67A	0.257
G57C U70A	0.184
G57C U70C	0.216
G57U A61U	0.203
G57U A71U	0.223
G57U C65A	0.271
G57U C65U	0.25
G57U C66A	0.219
G57U C66U	0.244
G57U G68U	0.196

Variant	self-cleavage
G57U G69C	0.0914
G57U G69U	0.215
G57U U58A	0.309
G57U U62G	0.176
G57U U63C	0.146
G57U U63G	0.291
G57U U67G	0.152
G57U U70A	0.266
U58A A61C	0.0874
U58A A61G	0.27
U58A A61U	0.216
U58A C66A	0.18
U58A G68A	0.272
U58A G68U	0.134
U58A G69A	0.201
U58A G69C	0.246
U58A U60C	0.715
U58A U62G	0.296
U58A U67A	0.273
U58A U67C	0.118
U58A U70A	0.588
U58A U70C	0.728
U58A U70G	0.493
U58C A61C	0.145

Variant	self-cleavage
U58C A64C	0.178
U58C A64G	0.502
U58C C66A	0.201
U58C C66U	0.546
U58C G68A	0.301
U58C G68U	0.169
U58C U60A	0.845
U58C U60C	1.19
U58C U62C	0.369
U58C U62G	0.242
U58C U63A	0.212
U58C U63G	0.27
U58C U67A	0.231
U58C U70A	0.897
U58C U70G	0.759
U58G A61U	0.0693
U58G C65G	0.146
U58G G68U	0.19
U58G U60C	0.731
U58G U62A	0.232
U58G U62C	0.187
U58G U63A	0.149
U58G U67A	0.181
U58G U67C	0.0792

Variant	self-cleavage
U58G U70A	0.849
A59C A71G	0.119
A59C C65A	0.0683
A59C C65G	0.246
A59C C65U	0.23
A59C C66G	0.253
A59C G68A	0.124
A59C G68U	0.138
A59G A61G	0.082
A59G A61U	0.141
A59G C66A	0.228
A59G G68A	0.135
A59G G68U	0.235
A59G U60A	0.164
A59G U60C	0.238
A59G U60G	0.311
A59G U62C	0.201
A59G U63A	0.262
A59G U63G	0.0571
A59G U67C	0.128
A59G U70C	0.192
A59G U70G	0.161
A59U A61G	0.166
A59U A71C	0.153

Variant	self-cleavage
A59U C65U	0.13
A59U C66U	0.191
A59U G68C	0.0787
A59U U67A	0.141
A59U U70C	0.199
A59U U70G	0.159
U60A A61G	0.216
U60A A71C	1.24
U60A A71U	0.616
U60A C65A	0.807
U60A C66G	0.191
U60A G68C	0.236
U60A G68U	0.189
U60A U63G	0.136
U60A U67C	0.155
U60A U67G	0.187
U60A U70G	0.553
U60C A61G	0.228
U60C A64C	0.201
U60C A64U	0.183
U60C A71C	1.66
U60C A71G	1.08
U60C A71U	1.18
U60C C66A	0.31

Variant	self-cleavage
U60C C66U	0.451
U60C G68A	0.26
U60C G68U	0.204
U60C G69C	0.326
U60C U62G	0.155
U60C U63C	0.314
U60C U67C	0.329
U60C U67G	0.207
U60G A61C	0.315
U60G A71U	0.395
U60G C65U	0.183
U60G C66A	0.0537
U60G C66U	0.361
U60G G68U	0.296
U60G U62A	0.203
U60G U63A	0.173
U60G U63G	0.0801
U60G U67A	0.144
U60G U70G	0.514
A61C	0.214
A61C A64C	0.0878
A61C C65A	0.165
